{"source": "the DeepSol protein solubility set"}
{"assay": "soluble on expression in E. coli; label from the status in PepcDB or PDB records"}
{"sequence": "MDLLDKVMGEMGSKPGSTAKKPATSASSTPRTNVWGTAKKPSSQQQPPKPLFTTPGSQQGSLGGRIPKREHTDRTGPDPKRKPLGGLSVPDSFNNFGTFRVQMNAWNLDISKMDERISRIMFRATLVHTDGRRFELSLGVSAFSGDVNRQQRRQAQCLLFRAWFKRNPELFKGMTDPAIAAYDAAETIYVGCSFFDVELTEHVCHLTEADFSPQEWKIVSLISRRSGSTFEIRIKTNPPIYTRGPNALTLENRSELTRIIEAITDQCLHNEKFLLYSSGTFPTKGGDIASPDEVTLIKSGFVKTTKIVDRDGVPDAIMTVDTTKSPFYKDTSLLKFFTAKMDQLTNSGGGPRGHNGGRERRDGGGNSRKYDDRRSPRDGEIDYDERTVSHYQRQFQDERISDGMLNTLKQSLKGLDCQPIHLKDSKANRSIMIDEIHTGTADSVTFEQKLPDGEMKLTSITEYYLQRYNYRLKFPHLPLVTSKRAKCYDFYPMELMSILPGQRIKQSHMTVDIQSYMTGKMSSLPDQHIKQSKLVLTEYLKLGDQPANRQMDAFRVSLKSIQPIVTNAHWLSPPDMKFANNQLYSLNPTRGVRFQTNGKFVMPARVKSVTIINYDKEFNRNVDMFAEGLAKHCSEQGMKFDSRPNSWKKVNLGSSDRRGTKVEIEEAIRNGVTIVFGIIAEKRPDMHDILKYFEEKLGQQTIQISSETADKFMRDHGGKQTIDNVIRKLNPKCGGTNFLIDVPESVGHRVVCNNSAEMRAKLYAKTQFIGFEMSHTGARTRFDIQKVMFDGDPTVVGVAYSLKHSAQLGGFSYFQESRLHKLTNLQEKMQICLNAYEQSSSYLPETVVVYRVGSGEGDYPQIVNEVNEMKLAARKKKHGYNPKFLVICTQRNSHIRVFPEHINERGKSMEQNVKSGTCVDVPGASHGYEEFILCCQTPLIGTVKPTKYTIIVNDCRWSKNEIMNVTYHLAFAHQVSYAPPAIPNVSYAAQNLAKRGHNNYKTHTKLVDMNDYSYRIKEKHEEIISSEEVDDILMRDFIETVSNDLNAMTINGRNFWA", "soluble on expression in E. coli": "not soluble"}
{"sequence": "MGLLDMIGPVMVGPSSSHTAGACRLALLARHLLGEKPKRVEFGLHGSFAKTGKGHGTHLALAAGVLGLTPDDERLKESLSLAEREGVEVVFKEVELGDVHPNTVRMVLEGEKERLAVTGSSLGGGLVRVFDVDGFEVRITGSAPTLVIKNVDTPGVVARVARILADDEVNIAYLTVSRKKRGGEAMMSIEVDRPLSEVPLRYLEHLSYILWVRQIPPVMG", "soluble on expression in E. coli": "soluble"}
{"sequence": "ASDHQTQAGKPQPLNPKIIIFEQENFQGHSHELSGPCPNLKETGMEKAGSVLVQAGPWVGYEQANCKGEQFVFEKGEYPRWDSWTSSRRTDSLSSLRPIKVDSQEH", "soluble on expression in E. coli": "soluble"}
{"sequence": "MSLEVQDDINSVDDIDSKLYHSVEWFYENKMYEDAIVATIAIIRRFLLCGKLAPLKAFSKGKNFKLLLVEYDTQLQTKSLIFQNEPEIVTEEDKEELLAYASLIEGLILIDEWKKFVSTQINSQGKWLSTGVDSSIDKTSKTLLNLIFKWFKNTSSEKDSDLAIYSEFRSIYVPYLIIELLKIFQNAREKDWKYMRSAFSLINDVANEEQNDFLSCFLKCGRLDEFLVKAGEVSIVAVEKGISGIFYEGHHHHHH", "soluble on expression in E. coli": "not soluble"}
{"sequence": "MKTHKTKNDLPSNAKSTVIGILNESLASVIDLALVTKQAHWNLKGPQFIAVHELLDTFRTQLDNHGDTIAERVVQLGGTALGSLQAVSSTTKLKAYPTDIYKIHDHLDALIERYGEVANMIRKAIDDSDEAGDPTTADIFTAASRDLDKSLWFLEAHVQEKS", "soluble on expression in E. coli": "soluble"}
{"sequence": "MSLRKEFPLMNRLKELRKEKNITLVELSEELGIPRSTLNRYENEDSEPKQETWEKLADYYGVSTAYLMGISNQKVSEEKALTAAKKVYQVYLSDDDLGKEIRKALMYFNKNDLDSVLKQAMQQYFTIPAVEWNTEFQSLKNTGFLYSWLEGYLVDRYRKEVKTNHNLITNTYYSIPSIDDVNEYGIFSDEIQIPLTEDFKQIFKVEDLSTKTHEEIKKLFKSDSTLIAYSYESSVDDKLKDDINMILDNARSEILNLKEKYPDKPSRIEQTTVLISKDEDTSFWSRNGSNDYIDELNLSEETKKLFVHLGSVFIEEKKRKSKAKEEGGSHHHHHH", "soluble on expression in E. coli": "soluble"}
{"sequence": "MALSILFLSIASLTLSSSLIIDHYFHLSFLRNPLKSQSGGGKMKPKVFITREIPEVGIKMLEDEFEVEVWGDEKEIPREILLKKVKEVDALVTMLSERIDKEVFENAPKLRIVANYAVGYDNIDIEEATKRGIYVTNTPDVLTDATADLAFALLLATARHVVKGDRFVRSGEWKKRGVAWHPKWFLGYDVYGKTIGIIGLGRIGQAIAKRAKGFNMRILYYSRTRKEEVERELNAEFKPLEDLLRESDFVVLAVPLTRETYHLINEERLKLMKKTAILINIARGKVVDTNALVKALKEGWIAGAGLDVFEEEPYYNEELFKLDNVVLTPHIGSASFGAREGMAELVAKNLIAFKRGEIPPTLVNREVIKIRKPGFE", "soluble on expression in E. coli": "soluble"}
{"sequence": "MGSDKIHHHHHHMIACENSGHSIPDDFPEVRKIVEAGVTTNPKKDYELSRYACYLIVQNGDPRKEVIALGQTYFAIQTYRQEVADHFNELDEDNRRLVVRGDIKQWNQMLAETAHNAGVITNEEFAIFQNAGYMGLYGGLDVEGILAAVYQSVFGGDVYLSLEEKVANLLFNEIGNSQVV", "soluble on expression in E. coli": "not soluble"}
{"sequence": "MGSDKIHHHHHHMAKVAHKKLLLSELQPGMRVKLPLSWTNHPFLFNRVDINSAAQIEMIRGLGVPFVYLISGSSDDAEAVDEEEEIEEIDEMPPERDLKADTRKSMRLSQKRFLESVNQCRNVFGKIVSDPEGAYRLSAALVEDLLSHLQEVQKPFLTLVGMDEKDVSVTQHGVSVAVLAMMIGHALDLPARELRDIALGSLFHDIGKLKVPDVIRRKRSALTPHEANYLQMHPNFGYDMLNRSGLFPKEVLNIVLHHHEFVDGSGFPDGLTGHKIPMVTQIVSLANDYDQQLSGQQATSPQVALGYLFKNRASKHSESLISVLVKILGIYPPGTIVKLSDDNVAKVIMTTKEVSQPQVWACKEDGSEASLRFLSDEGVTVQKSLRVEDLTEGAKRTLQVDKGISFYFSSLQA", "soluble on expression in E. coli": "not soluble"}
{"sequence": "MAHHHHHHMLRRNIRLRKEYLYLKKVEDEKKKYAEKIKSIKESYDKNKKIRGDLKDEESELRKNMNLYDEKSFDRKVDDEYFFCGLENPRVLITTSRNPSSTLENFAKELKLIIPNSEKINRGSYFIKDILNFARKNNITDVIILHEYKGIPRNLIICHLPFGPTLFCTIKDCKMRCEFNEKIDNISLCTPHLIFHNFHSDLGKRIMNIFKYLFPPVTMRTNKRKMPKHNSQIVKDNKLNKNININTNNNDTNQMDQMDQMNKIKFVTHTTQDDEDNNDHLQIYFKNNEYLNLQKYENNRVIVFFNKNDIIYFRHYNWEKNQTNEIVLKEIGPRFSFVVYKINKETLDSLNEDYEYIYRPFMNSRKALLT", "soluble on expression in E. coli": "not soluble"}
{"sequence": "MLTVDQVKELVGEIKDPIIDVPLKETEGIVEVSIKEEKEHVSVKLAMAQLGGAPQLDLQMAVVNALKENGAKTVGIRFETLPEEKVNQFKPKEENKPKTIEGLLSQNNPVEFIAIASGKGGVGKSTVAVNLAVALAREGKKVGLVDADIYGFSVPDMMGIDEKPGIKGKEVIPVERHGVKVISMAFFVEENAPVIWRGPMLGKMLTNFFTEVKWGDIEYLILDLPPGTGDVALDVHTMLPSSKEIIVTTPHPTAAFVAARAGAMAKHTDHSILGVIENMSYFESKETGNKEYVFGKGGGTKLADELNTQLLGELPLEQPSWNPKDFAPSIYQSDDRLGKIYSSIAQKVIAATNKLEHHHHHH", "soluble on expression in E. coli": "soluble"}
{"sequence": "MSLAKRIVPCLDVHAGRVVKGVNFVNLRDAGDPVEAARAYDEAGADELVFLDISATHEERAILLDVVARVAERVFIPLTVGGGVRSLEDARKLLLSGADKVSVNSAAVRRPELIRELADHFGAQAVVLAIDARWRGDFPEVHVAGGRVPTGLHAVEWAVKGVELGAGEILLTSMDRDGTKEGYDLRLTRMVAEAVGVPVIASGGAGRMEHFLEAFQAGAEAALAASVFHFGEIPIPKLKRYLAEKGVHVRLD", "soluble on expression in E. coli": "soluble"}
{"sequence": "MGSDKIHHHHHHADILNCILPAEMLTGTDIDYNRPYDKSLNAYPIYIEVNNGTDLTRLAPTFELTEGASIEPANGSTQNFTNPVRYTVTSEDKNWHRTYAINIHYPETKSIPTVFNFENVKTVPYNKNEYYVLYEAASGYSTLTWSSGNQGFALTGSGYTPNDFPTSISPNGRTGNCLQLITRKTGSLGTLVGMPIAAGNLFIGSFDIGSAMSDALSATKFGTTFYYEPIKLVGYYKYKAGPEFYENGESTNRKDVFNIYALFYEKTKDVQMLDGHIAKNNYEHENMVAAAVITDTHETSEWTRFELDFNYEHYGKTIDPQKLANGGYNVSIVLSASKDGDVFQGAPGSTLLIDDLELVCKQPLR", "soluble on expression in E. coli": "not soluble"}
{"sequence": "MGSDKIHHHHHHMASIKAINNSAHGNVKVKSNPSFIQSKTKHFAPVVVQEFISASKEFPIVFIKDAETGRFNAVVLLGLKPQENLFFDEKSWQGSYIPEALTLYPFVIHQAEGSDKALLCVDEDSALVNETIGDAFFDEKGVQKEWLTAKGEAVVDYVNKSGVTQNFIQLLLAKELLAPQTLSLNLAGQEEYTLDGLYVINEQKLNDLSDSEFSELRKTNALPAIYAILMSMQCIKKLIDRQSSK", "soluble on expression in E. coli": "not soluble"}
{"sequence": "RWITATDWASLPQTADTPALILFHGLEGGSASRYAQSIAHYFRARGWIVVIAHFRGCSGVPNRLARAYYSGDSAEVGFMLDTVRARIPHARWHAVGVSLGGNALLKYLGEHHDEASWLAAAAGVSVPLDLVAGGKALCTGFIARRIYTAYFLKTMRRKVLEKAKRFPGAIDVIRIAHARDLRDFDDAYTARMHGYRNALDYWTRASSKPWLAHIKTPTLVLNARNDPFLPESALPIPAECSDSVLLHQPAEGGHAGFPTGPFPAHLNWLPQRLG", "soluble on expression in E. coli": "not soluble"}
{"sequence": "MRIHAFHHLYQYRLERSTKPFLARGGKIKRCLYCLVELTHCLCAHQPDIESQVAVLLIVSENEVFKPSNTGRLIADTVKETYVYQWSRTEPNPEMLALLSNPAYYPVLIFPAETEEDKTRVLSPIPTEFAGKKPLLVLIDGSWREAKRIFRKSPYLASLPLVSVEPERLSQYIMRKSENEQHLATAEVASLVLDMFGDRHSASTLSLWFEAFKETYLTCKSRNKPSITKPALQRWIAHQQNANCLLEHHHHHH", "soluble on expression in E. coli": "not soluble"}
{"sequence": "MATALYTANDFILISLPQNAQPVTAPGSKTDSWFNETLIGGRAFVSDFKIPEFKIGSLDTLIVESEELSKVDNQIGASIGKIIEILQGLNETSTNAYRTLPINNMPVPEYLENFQWQTRKFKLDKSIKDLITLISNESSQLDADVRATYANYNSAKTNLAAAERKKTGDLSVRSLHDIVKPEDFVLNSEHLTTVLVAVPKSLKSDFEKSYETLSKNVVPASASVIAEDAEYVLFNVHLFKKNVQEFTTAAREKKFIPREFNYSEELIDQLKKEHDSAASLEQSLRVQLVRLAKTAYVDVFINWFHIKALRVYVESVLRYGLPPHFNIKIIAVPPKNLSKCKSELIDAFGFLGGNAFMKDKKGKINKQDTSLHQYASLVDTEYEPFVMYIINL", "soluble on expression in E. coli": "soluble"}
{"sequence": "MSLNFEYIINSLLETIKTYNFFVDWEKIENNIKKIEKRLHILNYLIGKENFKEEFFELLKEYPEVITVFPILIAVRDNKITILNENMELETLEFKEKKYLTDEEIERYYKFFKETGLEDLLKNRKIKNLVDYVFGVEVGMDTNARKNRIGDLMENIVKKYIENLCKQNKNLDYIFQATKDKIKQKWGINLTLDKTNRKFDFAVFNKNTKKLYLIEVNFYSGGGSKLKATAGEYRSLNEFIKNNNNNVQFIWITDGKGWNTAKNPLKESFNSGVVILNLKMVKEGLLKEILTQEGHHHHHH", "soluble on expression in E. coli": "soluble"}
